Experimental data: patent publication US10254283

Columns and labels:
[1] = target: recombinant Histone H3.1 (New England BioLabs, M2503S)
[2] = target: Flag-eIF4B (wild type)
[3] = target: Flag-eIF4B (S406A)
Flag-eIF4B (S406A), sequence (chain, as listed by the source S406A): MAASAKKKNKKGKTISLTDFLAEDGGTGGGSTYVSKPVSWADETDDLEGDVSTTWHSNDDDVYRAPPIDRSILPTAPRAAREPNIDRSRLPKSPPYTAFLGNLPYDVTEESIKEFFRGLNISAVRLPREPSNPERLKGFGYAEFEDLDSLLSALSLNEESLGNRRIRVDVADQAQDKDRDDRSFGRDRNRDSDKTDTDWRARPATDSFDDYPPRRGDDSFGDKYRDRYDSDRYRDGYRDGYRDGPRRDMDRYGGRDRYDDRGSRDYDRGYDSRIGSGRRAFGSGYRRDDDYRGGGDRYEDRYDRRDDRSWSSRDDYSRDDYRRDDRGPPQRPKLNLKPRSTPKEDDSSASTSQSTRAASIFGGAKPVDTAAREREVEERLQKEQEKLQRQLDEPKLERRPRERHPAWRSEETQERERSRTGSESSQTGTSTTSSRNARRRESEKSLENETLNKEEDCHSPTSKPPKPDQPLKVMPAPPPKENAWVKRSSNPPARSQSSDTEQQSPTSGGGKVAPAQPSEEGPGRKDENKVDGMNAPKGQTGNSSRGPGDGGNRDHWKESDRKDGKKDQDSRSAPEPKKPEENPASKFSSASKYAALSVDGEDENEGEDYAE

Flag-eIF4B (wild type), sequence (chain, as listed by the source): as the sequence (chain, as listed by the source S406A) above, with A406S counted along it

B1: recombinant MELK (kinase domain) (protein)
chain: MKDYDELLKYYELHETIGTGGFAKVKLACHILTGEMVAIKIMDKNTLGSDLPRIKTEIEALKNLRHQHICQLYHVLETANKIFMVLEYCPGGELFDYIISQDRLSEEETRVVFRQIVSAVAYVHSQGYAHRDLKPENLLFDEYHKLKLIDFGLCAKPKGNKDYHLQTCCGSLAYAAPELIQGKSYLGSEADVWSMGILLYVLMCGFLPFDDDNVMALYKKIMRGKYDVPKWLSPSSILLLQQMLQVDPKKRISMKNLLNHPWIMQDYNYPVEWQSKNPFIHLDDDCVTELSVHHRNNRQTMEDLISLWQYDHLTATYLLLLAKKARGKPVRLRLSSFSCG
[1]
  in vitro kinase assay, phosphorylation of Histone H3 at Thr3, Ser10 and Thr11 (immunoblot): Thr3, Ser10, and Thr11 of human Histone H3 were readily phosphorylated by the kinase domain of MELK
[2]
  in vitro kinase assay, phosphorylation of eIF4B at Ser406 (immunoblot): Ser406, but not Ser422, of human eIF4B was readily phosphorylated by full-length MELK or the kinase domain of MELK
  in vitro kinase assay, phosphorylation of eIF4B at Ser422 (immunoblot): MELK does not phosphorylates eIF4B at S422 in vitro
[3]
  in vitro kinase assay, phosphorylation of eIF4B at S406 (immunoblot): This phosphorylation was abolished when wild type (wt) eIF4B was replaced with a mutant eIF4B (S406A)
